This passage reports IC50 for glucose results from patent US8357523B2, “Beta-glucosidase variant enzymes and related polynucleotides” (Codexis, Inc., priority 2009, dated 2013).

A short description of the test: Glucose inhibition (glucose tolerance), cellobiose assay with cellobiose consumption determined by HPLC. The conditions noted are these: pH 5, 55° C.; glucose concentration at which enzyme activity is 50% of the activity with no glucose. The test is classed as biochemical.

B1: T2A + A5T + I14M + N79D + G127N + A143M + H145R + V159E + A198S + A207F + F211Y + I222A + S225C + Q508R + A3R + S73A + V177P + I2037-des[A647-L663] (protein)
chain: SARITQEGAAPAAMLHPEKWPRPATQRLIDPAVEKRVDALLKQLSVEEKVGQVIQGDIGTITPEDLRKYPLGAILAGGDSGPNGDDRAPPKEWLDLADAFYRVSLEKRPGHTPIPVLFGIDAVHGHNNIGSATIFPHNIALGMTRDPELLRRIGEVTAEEMAATGIDWTFAPALSVPRDDRWGRTYEGFSEDPEIVASYSAAYVEGFQGKYGSKDFMAPGRAVACAKHFLADGGTDQGRDQGDARISEDELIRIHNAGYPPAIDAGVLTVMASFSSWQGIKHHGHKQLLTDVLKGQMGFNGFIVGDWNAHDQVPGCTKFNCPTSLIAGLDMYMAADSWKQLYENTLAQVKDGTIPMARLDDAVRRILRVKVLAGLFEKPAPKDRPGLPGLETLGSPEHRAVGREAVRKSLVLLKNDKGTLPLSPKARVLVAGDGADNIGKQSGGWTISWQGTGNRNDEFPGATSILGGIRDAVADAGGSVEFDVAGQYKTKPDVAIVVFGEEPYAEFRGDVETLEYQPDQKQDLTLLKKLKDQGIPVVAVFLSGRPMWVNPELNASDAFVAAWLPGTEGGGVADVLFTDKAGKVQHDFAGKLSYSWPRTAAQTTVNRGDADYNPLFAYGYGLTYKDKSKVGTLPEESGVPAEARQN
Regarding B1, the IC50 for glucose entry is on record as “greater than 100 g/l”.
